Test results: patent US20240301054A1, “TIM-3 INHIBITORS AND USES THEREOF” (Novartis AG, priority 2019, published 2024)

Target: T1, interaction between TIM-3 and Galectin-9 (Homo sapiens, UniProt Q8TDQ0)
T1 construct: purchased R&D Systems
Assay: Plate-based (MesoScale) competition assay of the TIM-3/Galectin-9 interaction
Format: binding
Conditions: TIM-3 fusion protein coated at 2 μg/ml; SULFOTag Galectin-9 100 nM; FIG. 1
Method: TIM-3 fusion protein (R&D Systems) was coated on a standard MesoScale 96 well plate (Meso Scale Discovery) at 2 μg/ml in PBS (Phosphate Buffered Saline) and incubated for six hours at room temperature. The plate was washed three times with PBST (PBS buffer containing 0.05% Tween-20) and blocked with PBS containing 5% Probumin (Millipore) overnight at 4° C. After incubation, the plate was washed three times with PBST and unlabeled antibody (F38-2E2 (BioLegend); MBG453; MBG453 F(ab′)2; MBG453 F(ab); or control recombinant human Galectin-9 protein) diluted in Assay Diluent (2% Probumin, 0.1% Tween-20, 0.1% Triton X-100 (Sigma) with 10% StabilGuard (SurModics)), was added in serial dilutions to the plate and incubated for one hour on an orbital shaker at room temperature. The plate was then washed three times with PBST, and Galectin-9 labeled with MSD SULFOTag (Meso Scale Discovery) as per manufacturer's instructions, diluted in Assay Diluent to 100 nM, was added to the plate for one hour at room temperature on an orbital shaker. The plate was again washed three times with PBST, and Read Buffer T (1×) was added to the plate. The plate was read on MA600 Imager, and competition was assessed as a measure of the ability of the antibody to block Ga19-SULFOTag signal to TIM-3 receptor.

ability of the antibody to block Ga19-SULFOTag signal to TIM-3 receptor (interaction between TIM-3 and Galectin-9): did not
B1: control Galectin-9 protein: control recombinant human Galectin-9 protein, unlabeled (protein)
chain: AFSGSQAPYLSPAVPFSGTIQGGLQDGLQITVNGTVLSSSGTRFAVNFQTGFSGNDIAFHFNPRFEDGGYVVCNTRQNGSWGPEERKTHMPFQKGMPFDLCFLVQSSDFKVMVNGILFVQYFHRVPFHRVDTISVNGSVQLSYISFQPPGVWPANPAPITQTVIHTVQSAPGQMFSTPAIPPMMYPHPAYPMPFITTILGGLYPSKSILLSGTVLPSAQRFHINLCSGNHIAFHLNPRFDENAVVRNTQIDNSWGSEERSLPRKMPFVRGQSFSVWILCEAHCLKVAVDGQHLFEYYHRLRNLPTINRLEVGGDIQLTHVQT
